# Literature values in PMC3686494.
# Target: AgCad1 (cadherin) CR9-11 (Anopheles gambiae)
# Assay: one-site saturation binding
substance,measurement,value
Cry4Ba (from UniProt P05519),Kd,0.013 µM
